Experimental findings from article PMC5693750 (Journal of molecular biology, 2017) are described below.

First the molecules themselves.
B1: Swi6 (full-length, wild type) (natural protein, S. pombe, UniProt P40381 1-328, looked up)
chain: MKKGGVRSYRRSSTSKRSVIDDDSEPELPSMTKEAIASHKADSGSSDNEVESDHESKSSSKKLKENAKEEEGGEEEEEDEYVVEKVLKHRMARKGGGYEYLLKWEGYDDPSDNTWSSEADCSGCKQLIEAYWNEHGGRPEPSKRKRTARPKKPEAKEPSPKSRKTDEDKHDKDSNEKIEDVNEKTIKFADKSQEEFNENGPPSGQPNGHIESDNESKSPSQKESNESEDIQIAETPSNVTPKKKPSPEVPKLPDNRELTVKQVENYDSWEDLVSSIDTIERKDDGTLEIYLTWKNGAISHHPSTITNKKCPQKMLQFYESHLTFRENE
B2: Chp2 (full-length, wild type) (natural protein, S. pombe, UniProt O42934 1-380, looked up)
chain: MVKSADLDLMNSIISESDENFSPPPFTVEEAENSINNKSSTASLESPQNGSWHPSLYGLSVPEKTHIQNSLDLYSHGNSGSQKTHNVSFSCEIRKVKSSKLSPISNMEDSEDKKEEDESSSYKNEFKSSSSASVSSNFEKTSGSDDHNSQSPVPLNEGFEYIASSGSEDKNSDEEFAVEMILDSRMKKDGSGFQYYLKWEGYDDPSDNTWNDEEDCAGCLELIDAYWESRGGKPDLSSLIRLTRSRARSSNEASYVEKDESSNSDDSISYKRRRSRNAANRITDYVDSDLSESSMKEKQSKIEKYMKSDKSSKNFKPPFQKKSWEDLVDCVKTVQQLDNGKLIAKIKWKNGYVSTHDNIIIHQKCPLKIIEYYEAHIKFT

The target of data set [1] is H3Kc9me3 mononucleosome (Xenopus laevis). The data set is described as follows: fluorescence polarisation.
For data set [2] the target is unchanged. Description: AUC.
Data set [3] deals with the molecule itself. The data set is described as follows: AUC.
For a further data set, the target named is H3K9me3 tail peptide. The data set is described as follows: fluorescence polarisation.
In data set [4] the target is Unmethylated H3 tail peptide. The data set is described as follows: fluorescence polarisation.
Data set [5] concerns the target B1. The data set is described as follows: fluorescence polarisation. (In general: Fluorescence polarisation rises when a labelled molecule tumbles more slowly, as on binding a larger partner.)
For data set [6], the target named is B2. The data set is described as follows: fluorescence polarisation.
Data set [7] concerns the target T1, Swi6 chromoshadow domain (CSD) (S. pombe, UniProt P40381 261-328).
T1 sequence: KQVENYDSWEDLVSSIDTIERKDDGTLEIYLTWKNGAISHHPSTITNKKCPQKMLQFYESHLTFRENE
The data set is described as follows: NMR titration.

Data set [8] concerns the molecule itself. Description: AUC. The source holds these as a separate data set.

A value given as a limit tells only on which side of the number the result lay.

Take “Chp2 I370E (from UniProt O42934 1-380) (natural protein)”: the fold weaker Kd than wild-type Chp2 in [1] amounted to 3 fold.

For orientation: stoichiometry N means a count of units in the complex or per binding partner. The Kd is the equilibrium constant for the complex coming apart. Lower therefore signals a tighter complex. “Chp2 (full-length, wild type) (from UniProt O42934 1-380) (natural protein)” came in with a stoichiometry N in [2] of 4. Also, in data set [1], the Kd amounted to 430 nM.

As to “Swi6 L315D (from UniProt P40381 1-328) (natural protein)”, the fold weaker Kd than wild-type Swi6 in data set [1] was determined as 8.5 fold.

Regarding “Swi6 (full-length, wild type) (from UniProt P40381 1-328) (natural protein)”, in data set [1], the Kd amounted to 130 nM.

With B1, the binding result in “AUC [3]” is reported as “binds”. In addition, in the data set with H3K9me3 tail peptide, the fold weaker binding than Chp2 to the same peptide worked out at 5.5 fold and the fold weaker binding than Swi6 to H3Kc9me3 nucleosomes was 77 fold. In [4], the fold weaker binding than to the H3K9me3 tail peptide was > 10 fold.

EKAKTSNVCVCIPCKSAEQ [Sgo1 peptide]: the equilibrium dissociation constant (Kd) in data set [5] was determined as 6.6 ± 2.1 µM; in data set [6], 58.5 µM.

As to RAVTQYLLHLLQKARPTSQ [Clr3 peptide], in data set [7], the equilibrium dissociation constant (Kd) turned out to be 68 ± 15 µM, the “Kd fitted for residue E280” value came out at 62.5 ± 15.4 and the “Kd fitted for residue H321” value was determined as 51.9 ± 7.84.

With B2, the Kd in “AUC [8]” was 183 µM; with H3K9me3 tail peptide, 1850 nM. The fold weaker binding than to the H3K9me3 tail peptide in data set [4] is > 10 fold.
